Test results: publication PMC7817833

Legend:
14-3-3γ [1] = molecular target: 14-3-3γ (UniProt P61981); assay: co-immunoprecipitation of Myc-ENDOG, western blot; conditions: reference: Myc-ENDOG wild type; sites T128,S288
14-3-3γ [2] = molecular target: 14-3-3γ (UniProt P61981); assay: co-immunoprecipitation, western blot; conditions: reference: wild-type ENDOG; sites T128,S288

binding against the reference (14-3-3γ [1])	binding against the reference (14-3-3γ [2])	Substance
weaker	–	ENDOG (Endonuclease G) (from UniProt Q14249) Myc-ENDOG-AA (T128A/S288A)
–	weaker	ENDOG (Endonuclease G) (from UniProt Q14249) T128A/S288A (AA)
